Assays:
[1] = biological target: T1, human CCR8 (human, UniProt P51685 1-355); assay: FACS
T1 construct: also called hCCR8; P51685_CCR8_HUMAN

[2] = biological target: T2, cynomolgus CCR8 (cynomolgus, UniProt O97665 1-356 (rhesus entry)); assay: FACS
T2 construct: also called cynoCCR8; G7NYJ2_CCR8_MACFA

[3] = biological target: T3, murine CCR8 (mouse, UniProt P56484 1-353); assay: FACS, murine iTregs
T3 construct: also called mCCR8; P56484_CCR8_MOUSE
T3 sequence: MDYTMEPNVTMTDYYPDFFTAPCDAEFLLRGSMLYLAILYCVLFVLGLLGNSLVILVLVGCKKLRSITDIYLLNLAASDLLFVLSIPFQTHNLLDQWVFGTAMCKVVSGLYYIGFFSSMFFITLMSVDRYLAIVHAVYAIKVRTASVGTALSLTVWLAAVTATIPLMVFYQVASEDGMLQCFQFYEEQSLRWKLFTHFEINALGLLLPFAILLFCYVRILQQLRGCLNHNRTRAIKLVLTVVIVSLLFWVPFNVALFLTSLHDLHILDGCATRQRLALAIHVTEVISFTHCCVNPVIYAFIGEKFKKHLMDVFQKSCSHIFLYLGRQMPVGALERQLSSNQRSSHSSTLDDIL

[4] = biological target: T3, murine CCR8; assay: FACS, CHO-mCCR8
[5] = biological target: T4, HSA alone (human, UniProt P02768 25-609); assay: SPR, IgG captured
T4 construct: control analyte; also called human serum albumin

[6] = biological target: T5, TPP-19951, His6-tagged murine CCR8 TRD fused with human serum albumin (mouse; human, not fully specified); assay: SPR, IgG captured, TRD-HSA analyte
T5 construct: non-sulfated TRD; also called CCR8-HSA fusion protein (mouse); not shown: human serum albumin (HSA), C-terminal fusion partner
T5 chain: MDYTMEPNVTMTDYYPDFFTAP
Description: IgGs were captured using anti-human Fc IgGs covalently amine coupled to a CM5 sensor chip. […] The respective CCR8-HSA fusion protein was used as analyte with a concentration range of 1.56-200 nM in multicycle kinetics mode. Obtained sensorgrams were fitted to a 1:1 Langmuir binding model.

T2 sequence (O97665 other isoform, or with tags, fused parts or gaps): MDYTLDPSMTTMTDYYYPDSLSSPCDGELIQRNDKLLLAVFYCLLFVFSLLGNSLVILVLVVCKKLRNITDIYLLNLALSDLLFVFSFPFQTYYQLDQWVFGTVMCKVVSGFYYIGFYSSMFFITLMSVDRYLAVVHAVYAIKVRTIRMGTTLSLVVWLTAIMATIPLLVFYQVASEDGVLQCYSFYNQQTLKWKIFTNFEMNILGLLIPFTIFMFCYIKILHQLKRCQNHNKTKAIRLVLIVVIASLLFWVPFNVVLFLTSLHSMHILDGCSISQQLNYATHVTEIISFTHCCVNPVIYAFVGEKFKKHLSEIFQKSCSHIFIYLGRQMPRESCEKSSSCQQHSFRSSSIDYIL

binding result [1]: no binding
binding result [2]: no binding
EC50 [3]: 13.2 nM
EC50 [4]: 3 nM
binding result [5]: no binding
Kd [6]: 520 nM
koff [6]: 0.0011 s⁻¹
kon [6]: 2200 M⁻¹ s⁻¹
B1: TPP-14099 (antibody, human IgG1, lambda, V domains shown)
VH: EVQLLESGGGLVQPGGSLRLSCAASGFTFSDYGVHWVRQAPGKGLEWVSGVSWNGSRTHYADSVKGRFTISRDNSKNTLYLQMNSLRAEDTAVYYCVTRGAWGQGTLVTVSS
VL: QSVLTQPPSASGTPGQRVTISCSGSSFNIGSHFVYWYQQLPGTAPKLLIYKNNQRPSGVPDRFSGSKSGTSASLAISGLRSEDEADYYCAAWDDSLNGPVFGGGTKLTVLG
notes: anti-murine CCR8, human IgG1 lambda; also called 497A-M005-F02-hIgG1Lambda
